Experimental data published in the domain aggregation screens of Martell et al. (2025).

Assay: soluble fraction after stress (log2 fold change); higher = more stays soluble; pooled small domains, quantitative proteomics
Settings: stress: 50 degC
Method in brief: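 The measure of aggregation propensity here is the base-two logarithm of the fold change in the soluble amount of each protein after stress. A higher value means more of that protein stays in solution. Stress was applied at 50°C to pooled libraries of small protein domains, read out by high-throughput quantitative proteomics.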

Sequence | soluble fraction (log2)
HMNSPSKVIDISQLRKGMFVQLDLGWMSHPFAVGSFKVSTDEQIQTLRGLGLSEVRYIPEKSDPA | -0.514
HMYSYNKEEVGKRIKSIRQQKGLTQESFGELFGASKGNVATWEKGISLPNASRLREIADLVSITVEELLYG | -0.346
HMDTIGSKVLAFLAGNLLDPTPFNYRFGYLYLNRTSKVIVEETDTYIDSGMRMTQEAVAEIMQKFAQ | -3.9
HMSEFLTIVRAVYSGLSRRKVAAMHKVSRNTVSLYLRQARDQGWLTLEDLEKLDDLTVSQGVS | -2
HMNILNYIIENENQEVRVDKFLSDTIEDMSRSSVASIIEDGGLLVNDKLQNKKYKLKIGDKVQFTVPDPV | 0.113
HMYLQKGISNGKVYLSIVHGYRDPVTKKVRRKTIRSLGYLEDLEKQYADPIKHFEAVVAKMNEEEALE | -0.517
HMSDPELNDNEKKIYDIIFNKKSMDLTELKNLSELSNKQWDKGIKSLSKQDFVKVIKTEEALIVELV | -0.302
HMVVVPPPATPKPGDVTGDNKINGYDLSILLSNWKRPGATLAQGDLNKDGVVNGLDLSIMLLNWG | -0.0393
HMENIIFDIGFHKGEDTLFYLLKGYRVIAVDADPDLINEWQNIFKKYIENGKLLLLNYVISDT | -1.33
HMDSSITLMRMYIPKGHNWENKLISDVSMPTNSLALMIKRNGTTIIPKGDTMILAKDTLILSVPSYEPS | -1.13
HMRDLAEAETILDALPTRLRKIVRWRHLEGLSQTEIAARLEISQMHVSRLYRRAISMIHASLADD | -0.0123
HMDISPAAKQRLALIQPLLEKNAEAITDRKLRNAVAKDIANNQNTTVRRVLRLYYRYLATGQVM | 0.0392
HMNQTTYTVLYSGMDPADTGKVLTALNEMGVDARTQGEDTVLVPADRADEIRLELAAQGYPTS | 0.0864
HMKGKWKPIILWQLSKAPQSLSGLRHSIAGISQKMLIQHLNELIHFGFVVRTTFEGYPLKVEYDLTDRGR | -0.231
HMQPTVEGLMKALETMTFNERTALALHYGLTGRQPMTFMAIGRYLGISDGRAEALVNSAIRKLR | -1.43
HMPIRMLQVQKTNTGYLNVRDTPSVSGALIGKVFPGDMLSSTEERDGWFLVAVPQGGTGWVSGDYVKTTS | -0.0387
HMSDIIVQGNRRLDTDLIITDSQIREIGTDEKSLSLAVKNLYKTGYFENVQIFKDNSVVFINVKENQ | -0.103
HMVGLKWYDTGNKKPPIGTEYKNTELSEALKGHDRKEFTWKELDVLGVNITDKEQYIVVGENYYTQV | -0.197
HMMESLGIRLKRLRKDKGLTQVELGKLSGVTGVTIGYWEKDLNEPGSKALSKLAQALGTTESYLLYGVS | -0.634
HMKETLSDTVSRKLEDMITTQMKAGNRLPTEMVLAEMYSVGRSTIRESLKALSSKGLIVRKKDGTFVSDRV | -0.109
HMERAFRILELFDLKQDELPITEIAERTGLPISTAHRLLSTLETLGYIAQNPDNGRYRLGLQTFVLGSR | -0.987
HMDEKSGWLHLAPHEGALRAALYAEHAVQEERTAPDGSQWLRLVLREKHYHQIQSKYNRRLTLHTQPDPS | 0.113
HMENPVPVIITDQNFQPLLWKNVGVPTDTIFHELSPENQKKLENLMKTMVQMPLTDDGRISGYAYYSK | -0.195

Sequence | soluble fraction (log2)
HMAAINTYQVRKIYAIAGALGMKSRDGDDALHDLVFGMTGKQHISGLTSAEAYDVIAELEKKQ | -1.66
HMVSLLDWAYKQVRRMLFSGDLPQGQKIVVAQLANQLSISPTPVKEALNRLAVEGLLEAVPRRGFQVR | -0.229
HMPELSNNLDRDKVALKNFNESLKDGLTPAEAYANHLTNVSKAAQEAARQSNGLPVDIDKYHNSQLAASMA | 0.273
HMNVEQQNQARENIKRLMEEQGLSQPKLSEKAGIAFGTLSRILRGKQDLTIQTAEKIADALGLSVYDLAE | 0.281
HMLKPIHKDWSPNGDAKEILLKAGITEEFIQKELPEFIMYWSERNEESDIWNSKFIAHIRRRWGRFS | -1.14
HMQNSYSVEDLALKAGLSVDTIRYYQGLDLIAPPQKNGRRAIYGDEHLSRLDEIKKLALEGFSLRQISLLK | -0.652
HMALLSNEDIMFNLEFNRDLAVASNDGVSRDEFLRNKYGISEEEYNMLRARYGDGLNAARIKEYVGQRD | 0.104
HMTALPPNVSIDSDERRLLEAIGFDPVDMDVLARDGQFSSVDLFRLLVSLELKGLVENQHGAYQRL | -1.31
HMGDWITGTVTRIADNGWGTFQPENAHNTVSIPPKMVADNQLKEADSIKIIAEPSPDGTKTFIKAISRE | -0.00712
HMNYYYKDNQYWYVGFRYDERLVKEIKRFVGAGYNPENKEWYIPFTLPTVAPLQKWLHDNGFVEGMNYYP | -1.86
HMTMKQVFIETDANVNQKIMLNEKEAHHLFDVLRTSDKETIRVVTNTSQVFLARVQQKPYIYLFDKMTVE | -1.41
HMKQVEVESVIGKSEEAANSILTKAGLKVNIGYKEDSSKPTDTVLSQDPAPGEKVDEGTTVTIVVNNYKKP | 0.0614
HMENISVESKMKLLLKSLKTRDFISLPELVLKGESKLAISVILVAALELNRKGYIEVVQAEQFGEIYFKNT | -0.191
HMLTLDEKRRLQIMRVQVALTSLGLYNGRVDGVLNAETKLGLEFFQDLKGLPKSGTMTTPTLNALGVPA | -0.423
HMKIHNSIREITDFDRKQNSNIPSDAKYRIVFYTPQGNKTIIPEELQGLQYYRSKELAEIALNKKLNSN | -0.132
HMRMLTKRRQDLLLELLEERGSITVSEVKDMLDASESTIRRDITALDEEGKLVKVFGGAVAAR | -0.272
HMASLSRRELEVLELLALRLTVKEVAERLVISELTAKRHTSNIYQKLGVNRRRDALAAAQARGLLGAR | -2.9
HMTPVEVNARGVHVDFSKGGILLEDVVRHLILEALRASEWKRGPAAQLLGISKETLRYRMEKYRLYPP | -2.26
HMQKEMDIVLQINGKMRSNLKVSSTANDDEIIKTAIESDAYKKFSLGLRIQKTIIVPNRLINIVLEK | -0.985
HMRPQYVDLFTKLSAEEAGAITSKLKELKVEYQLADNGSTIKVPQKDAAEIRLELANEGLPA | 0.141
HMSTEAVVMSSSVSVKSSPDKASTDLFVLHEGTKVRTVSELGDWREIVIADGKKGWVEARTIET | ≥ 0.62
HMNPKTELMVYLKKRDEWVASQILSDVLQVSTRTIRKFVKEINMDYQTENVILSSSKGYKLNQNLLSSL | -1.2
HMEFDIDAAIHAALEPQAVMRAWFGHEGREYPEDFGVVFFRGWESFTHQEKVEAVRDAKKVLDRAVR | -0.516

Sequence | soluble fraction (log2)
HMRNNKLRRANKLKTEFENLPHIGKKRAHVLLKAFGSTENLKMTTAQALSEAAKISLKQAEEVLEAVRG | -0.0475
HMPTLNIVDGHIAASDGVRILSIHNVTGRRYATSSKLPAGIYIVVLMPAKAETPLTVKVIVEA | -1.6
HMVDLLDETLIEFYAFANNLIKDLETNSEKYGGMSQFEKELIFNEQITQYQRKLKIDLQDEVG | -1.54
HMSESLRDLVLSLIPEDGSTIGNRALITRLREDLPDLTDEDYHEVRDQLIAEGVLAKGRGQGGSVARANG | 0.205
HMKIPIIYQPLKNAKRIKIYIPYELKELRTIFKKINTTFWHPNQKLWSIIYTQENVALIKNLFGKNYKIVN | -0.547
HMDYTPIEVKDLPQAIQDALTKNFSEYTVKSAAYQEDEDGVKIYQVTVVDEEGTEANIFFTEKGE | 0.0163
HMNPGNTESFPVYQKRLGEIIQTLAGKKGQDINSPEVKELVGEYDFLTKQMFQLPDATSMVMEIATAYRN | 0.0462
HMRISKRQLILESAAAIINEKGADYLTLDAVAQRAGISKGGLFYHFKSKDELIKELVNYANN | -0.14
HMAEMLENQLKHAKSKQEANEYIAAAIGGVSDDDPDKEYLVAAYNEISKEFHHSSAYHRLPDT | -0.0511
HMSDYKSALQEAVQTNKQSIEYVLIKESGPAHNKTFTFEVRIDNISYGVGTAKSKKEAEQIAAKDALDKLV | -0.0635
HMNASITVPDVRNLTVKQASEQLLASGFTPIPYAATKDGVGNDIVYAQDPPPSVLARSGDQITITYNPA | 0.0329
HMTTIFDNINGELRRRHLTQQDLAKTIEIDRRTWSKWQDKNDMPASVLLQIAKWLNVTLDYLTRD | -2.08
HMGSIEASFEEDVRRYLARKSMTTTEISKKMRQKRPDMSRDQLMTLLANAIKRIKPIKKKIKGTLYLSLE | -1.3
HMRGGKGTVPDVTGMDAAAAVRILEKAGMNVAYIRGAGFVAEQTPAAGTKLKKGDKAYITLSWK | -0.0707
HMDIYLDEVNRKILHLLSQGIKTRSLREYINLSMSAIEKRKKHMKELFLVEDGKDETLLNEARNKGF | -1.43
HMSLPALALRQADSLAFKQVIYHDRVVPFNTLARDFVLKLTGKPSYGGMTPEQVVGGWLLRPEVWQNEPM | -0.0387
HMEPEDVIAMERYLASGAIKGIGVTLAGRIIKKFQKETFHIIEEEPERLSEVKGISEKLAREIYQQFTQK | -0.873
HMGSFTDKQIKQAFGVLNDPRFKQGNYDGAVAVINKIAPGLADHPSVANALKRANEATQDIAQQTQA | 0.161
HMEDIKHVVANNIKKYRKEERLTLQQLSYLTGVSKTMLNQIETEKSSPSITILWRISSGLKIPLSKLISSP | -1.61
HMDDGALQIRLGPQALQQRLDKLGYSLNKEDLDLVYQYFLHSADSKGAVYDQELRELMGEAGVE | -0.0408
HMFEDYLRMKGLSIVSFSKQTGIPISTLRNLNKIRYDKWKIRYLEELSNVLNKTIQEIIEELKNMG | -2.32
HMADVSPEAQHKMVEAFAQFGVTKEHIEQRIQRRLDAIQPAQMVTLKRIFASLRDGMSTPAEWFE | -0.227
HMGSYANAWQLAEHAAKDMLGEVIYLLDGKEVHAGILETMSAESIKTASAENVDGKVVIRLVSK | -0.0617
